Assay [1] deals with ApHt_20, IsCT-like antimicrobial venom peptide from Mesobuthus martensii Karsch (Mesobuthus martensii Karsch).
Assay [2] has the same target. The source holds these as a separate data set.

“HAP-1, short-chain highly acidic peptide from Mesobuthus martensii Karsch”: in assay [1], the MIC of ApHt 20 against Staphylococcus aureus AB94004 in the presence of 32 μM HAP-1 (8 μM without HAP-1) is 16 µM. The same substance showed an agar diffusion assay against Staphylococcus aureus AB94004: minimum concentration of HAP-1 required to completely inhibit the inhibition zone made by 40 nM ApHt 20 in assay [2] of 140 nM.

The values are drawn from publication PMC6321396.
